Test results: US20260049138A1 (Chugai, published 2026)
Where a chain is given by its changes, count along the chain named. Names and notes keep the numbering of the source.

B1: CE115HA000 K52R one-arm antibody (antibody, human IgG1, kappa, L234A L235A, N297A, name in Kabat numbering)
heavy: QVQLVESGGGVVQPGRSLRLSCAASGFTFSNAWMHWVRQAPGKGLEWVAQIRAKSNNYATYYAESVKGRFTISRDDSKNSLYLQMNSLKTEDTAVYYCRYVHYGAYYGVDAWGQGTTVTVSSASTKGPSVFPLAPSSKSTSGGTAALGCLVKDYFPEPVTVSWNSGALTSGVHTFPAVLQSSGLYSLSSVVTVPSSSLGTQTYICNVNHKPSNTKVDKKVEPKSCDKTHTCPPCPAPEAAGGPSVFLFPPKPKDTLMISRTPEVTCVVVDVSHEDPEVKFNWYVDGVEVHNAKTKPREEQYASTYRVVSVLTVLHQDWLNGKEYKCKVSNKALPAPIEKTISKAKGQPREPQVYTLPPSRCELTKNQVSLSCAVKGFYPSDIAVEWESNGQPENNYKTTPPVLDSDGSFFLVSKLTVDKSRWQQGNVFSCSVMHEALHNHYTQKSLSLSPDYKDDDDK
chain: EPKSSDKTHTCPPCPAPELLGGPSVFLFPPKPKDTLMISRTPEVTCVVVDVSHEDPEVKFNWYVDGVEVHNAKTKPREEQYNSTYRVVSVLTVLHQDWLNGKEYKCKVSNKALPAPIEKTISKAKGQPREPQVCTLPPSRDELTKNQVSLWCLVKGFYPSDIAVEWESNGQPENNYKTTPPVLDSDGSFFLYSKLTVDKSRWQQGNVFSCSVMHEALHNRYTQKSLSLSP
light: DIVMTQSPLSLPVTPGEPASISCRSSQSLVHSNRNTYLHWYQQKPGQAPRLLIYKVSNRFSGVPDRFSGSGSGTDFTLKISRVEAEDVGVYYCGQGTQVPYTFGQGTKLEIKRTVAAPSVFIFPPSDEQLKSGTASVVCLLNNFYPREAKVQWKVDNALQSGNSQESVTEQDSKDSTYSLSSTLTLSKADYEKHKVYACEVTHQGLSSPVTKSFNRGEC
B2: CE115HA000 K64D one-arm antibody (antibody, human IgG1, kappa, L234A L235A, N297A, name in Kabat numbering)
heavy: B1 heavy with R52K, K67D
chain: B1 chain
light: B1 light
B3: CE115HA000 K64Q one-arm antibody (antibody, human IgG1, kappa, L234A L235A, N297A, name in Kabat numbering)
heavy: B1 heavy with R52K, K67Q
chain: B1 chain
light: B1 light
B4: CE115HA000 N31A one-arm antibody (antibody, human IgG1, kappa, L234A L235A, N297A, name in Kabat numbering)
heavy: B1 heavy with N31A, R52K
chain: B1 chain
light: B1 light
notes: One-arm antibody: altered VH-pE22Hh, Kn010G3, GLS3000-kappa; The same holds for m64 to m321
B5: CE115HA000 K52bL one-arm antibody (antibody, human IgG1, kappa, L234A L235A, N297A, name in Kabat numbering)
heavy: B1 heavy with R52K, K54L
chain: B1 chain
light: B1 light
B6: CE115HA000 N31Q one-arm antibody (antibody, human IgG1, kappa, L234A L235A, N297A, name in Kabat numbering)
heavy: B1 heavy with N31Q, R52K
chain: B1 chain
light: B1 light
B7: CE115HA000 K52S one-arm antibody (antibody, human IgG1, kappa, L234A L235A, N297A, name in Kabat numbering)
heavy: B1 heavy with R52S
chain: B1 chain
light: B1 light
B8: CE115HA000 L78I one-arm antibody (antibody, human IgG1, kappa, L234A L235A, N297A, name in Kabat numbering)
heavy: B1 heavy with R52K, L81I
chain: B1 chain
light: B1 light
B9: CE115HA000 K52bR one-arm antibody (antibody, human IgG1, kappa, L234A L235A, N297A, name in Kabat numbering)
heavy: B1 heavy with R52K, K54R
chain: B1 chain
light: B1 light
B10: CE115HA000 K52bQ one-arm antibody (antibody, human IgG1, kappa, L234A L235A, N297A, name in Kabat numbering)
heavy: B1 heavy with R52K, K54Q
chain: B1 chain
light: B1 light
B11: CE115HA000 K64A one-arm antibody (antibody, human IgG1, kappa, L234A L235A, N297A, name in Kabat numbering)
heavy: B1 heavy with R52K, K67A
chain: B1 chain
light: B1 light
B12: CE115HA000 K52bS one-arm antibody (antibody, human IgG1, kappa, L234A L235A, N297A, name in Kabat numbering)
heavy: B1 heavy with R52K, K54S
chain: B1 chain
light: B1 light
B13: CE115HA000 K52bY one-arm antibody (antibody, human IgG1, kappa, L234A L235A, N297A, name in Kabat numbering)
heavy: B1 heavy with R52K, K54Y
chain: B1 chain
light: B1 light
B14: CE115HA000 N31K one-arm antibody (antibody, human IgG1, kappa, L234A L235A, N297A, name in Kabat numbering)
heavy: B1 heavy with N31K, R52K
chain: B1 chain
light: B1 light
B15: CE115HA000 K75R one-arm antibody (antibody, human IgG1, kappa, L234A L235A, N297A, name in Kabat numbering)
heavy: B1 heavy with R52K, K78R
chain: B1 chain
light: B1 light
B16: CE115HA000 K75T one-arm antibody (antibody, human IgG1, kappa, L234A L235A, N297A, name in Kabat numbering)
heavy: B1 heavy with R52K, K78T
chain: B1 chain
light: B1 light
B17: CE115HA000 K52bA one-arm antibody (antibody, human IgG1, kappa, L234A L235A, N297A, name in Kabat numbering)
heavy: B1 heavy with R52K, K54A
chain: B1 chain
light: B1 light
B18: CE115HA000 N31S one-arm antibody (antibody, human IgG1, kappa, L234A L235A, N297A, name in Kabat numbering)
heavy: B1 heavy with N31S, R52K
chain: B1 chain
light: B1 light
B19: CE115HA000 K64S one-arm antibody (antibody, human IgG1, kappa, L234A L235A, N297A, name in Kabat numbering)
heavy: B1 heavy with R52K, K67S
chain: B1 chain
light: B1 light
B20: CE115HA000 N31H one-arm antibody (antibody, human IgG1, kappa, L234A L235A, N297A, name in Kabat numbering)
heavy: B1 heavy with N31H, R52K
chain: B1 chain
light: B1 light
B21: CE115HA000 N31G one-arm antibody (antibody, human IgG1, kappa, L234A L235A, N297A, name in Kabat numbering)
heavy: B1 heavy with N31G, R52K
chain: B1 chain
light: B1 light
B22: CE115HA000 K52bN one-arm antibody (antibody, human IgG1, kappa, L234A L235A, N297A, name in Kabat numbering)
heavy: B1 heavy with R52K, K54N
chain: B1 chain
light: B1 light
B23: CE115HA000 K52W one-arm antibody (antibody, human IgG1, kappa, L234A L235A, N297A, name in Kabat numbering)
heavy: B1 heavy with R52W
chain: B1 chain
light: B1 light
B24: CE115HA000 N31R one-arm antibody (antibody, human IgG1, kappa, L234A L235A, N297A, name in Kabat numbering)
heavy: B1 heavy with N31R, R52K
chain: B1 chain
light: B1 light
B25: CE115HA000 N31I one-arm antibody (antibody, human IgG1, kappa, L234A L235A, N297A, name in Kabat numbering)
heavy: B1 heavy with N31I, R52K
chain: B1 chain
light: B1 light
B26: CE115HA000 N31W one-arm antibody (antibody, human IgG1, kappa, L234A L235A, N297A, name in Kabat numbering)
heavy: B1 heavy with N31W, R52K
chain: B1 chain
light: B1 light
B27: CE115HA000 N31Y one-arm antibody (antibody, human IgG1, kappa, L234A L235A, N297A, name in Kabat numbering)
heavy: B1 heavy with N31Y, R52K
chain: B1 chain
light: B1 light
B28: CE115HA000 K52bD one-arm antibody (antibody, human IgG1, kappa, L234A L235A, N297A, name in Kabat numbering)
heavy: B1 heavy with R52K, K54D
chain: B1 chain
light: B1 light
B29: CE115HA000 K64E one-arm antibody (antibody, human IgG1, kappa, L234A L235A, N297A, name in Kabat numbering)
heavy: B1 heavy with R52K, K67E
chain: B1 chain
light: B1 light
B30: CE115HA000 K52Y one-arm antibody (antibody, human IgG1, kappa, L234A L235A, N297A, name in Kabat numbering)
heavy: B1 heavy with R52Y
chain: B1 chain
light: B1 light
B31: CE115HA000 N31F one-arm antibody (antibody, human IgG1, kappa, L234A L235A, N297A, name in Kabat numbering)
heavy: B1 heavy with N31F, R52K
chain: B1 chain
light: B1 light
B32: CE115HA000 N31D one-arm antibody (antibody, human IgG1, kappa, L234A L235A, N297A, name in Kabat numbering)
heavy: B1 heavy with N31D, R52K
chain: B1 chain
light: B1 light

Target: T1, CD3ε homodimer protein (human, UniProt P07766 23-126, limits assumed, sulfo-tag or biotin label in the ECL assays; amine-coupled to the chip in SPR)
T1 construct: also called human CD3ε homodimer protein; CD3 (CD3ε)
Assay: SPR Biacore T200; CD3ε homodimer on CM4 chip;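 note: Single-residue variant antibodies injected as analyte over CD3ε homodimer immobilized by amine coupling, run at 25 °C in HBS-EP+ buffer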

T1 sequence (P07766 23-126 limits assumed): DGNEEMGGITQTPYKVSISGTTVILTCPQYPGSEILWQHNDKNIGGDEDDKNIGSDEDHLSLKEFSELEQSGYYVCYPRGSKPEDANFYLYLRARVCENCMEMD

ratio of amounts bound Z=Y/X (altered form / CE115HA000) | Binder
0.91 | B1
0.72 | B2
0.89 | B3
0.5 | B4
0.61 | B5
0.49 | B6
0.28 | B7
1.34 | B8
1.11 | B9
0.6 | B10
0.82 | B11
0.68 | B12
0.74 | B13
1.01 | B14
1.01 | B15
0.84 | B16

ratio of amounts bound Z=Y/X (altered form / CE115HA000) | Binder
0.67 | B17
0.81 | B18
0.84 | B19
0.68 | B20
0.39 | B21
0.27 | B22
0.22 | B23
1.14 | B24
0.81 | B25
0.63 | B26
0.64 | B27
0.27 | B28
0.74 | B29
0.18 | B30
0.62 | B31
0.37 | B32
